Measured values published in paper PMC9598255.

B1: TMPRSS2 (transmembrane protease serine 2): N286Q (protein)
parent chain: MPPAPPGGESGCEERGAAGHIEHSRYLSLLDAVDNSKMALNSGSPPAIGPYYENHGYQPENPYPAQPTVVPTVYEVHPAQYYPSPVPQYAPRVLTQASNPVVCTQPKSPSGTVCTSKTKKALCITLTLGTFLVGAALAAGLLWKFMGSKCSNSGIECDSSGTCINPSNWCDGVSHCPGGEDENRCVRLYGPNFILQVYSSQRKSWHPVCQDDWNENYGRAACRDMGYKNNFYSSQGIVDDSGSTSFMKLNTSAGNVDIYKKLYHSDACSSKAVVSLRCIACGVNLNSSRQSRIVGGESALPGAWPWQVSLHVQNVHVCGGSIITPEWIVTAAHCVEKPLNNPWHWTAFAGILRQSFMFYGAGYQVEKVISHPNYDSKTKNNDIALMKLQKPLTFNDLVKPVCLPNPGMMLQPEQLCWISGWGATEEKGKTSEVLNAAKVLLIETQRCNSRYVYDNLITPAMICAGFLQGNVDSCQGDSGGPLVTSKNNIWWLIGDTSWGSGCAKAYRPGVYGNVMVFTDWIYRQMRADG
B2: TMPRSS2 (transmembrane protease serine 2): N250Q/N286Q (protein)
parent chain: B1 parent chain
B3: TMPRSS2 (transmembrane protease serine 2): N250Q (protein)
parent chain: B1 parent chain

Key:
Details in all cases: glycan lost; control: wild type
[1] = co-immunostaining with ER marker KDEL, HEK293
[2] = flow cytometry of cell surface TMPRSS2, HEK293
[3] = co-immunostaining with Golgi marker GM130, HEK293

Row | Protein | localisation_or_trafficking [1] | localisation_or_trafficking [2] | localisation_or_trafficking [3]
1 | B1 | no change | no change | no change
2 | B2 | changes |  | 
3 | B3 | changes |  | no change
